Experimental data from US20210340263A1 (WISTAR INSTITUTE, published 2021).

Biological target: T1, murine FSHR (murine, UniProt P35378 18-692)
T1 construct: whole, on cells; also called mouse FSHR
T1 sequence (looked up): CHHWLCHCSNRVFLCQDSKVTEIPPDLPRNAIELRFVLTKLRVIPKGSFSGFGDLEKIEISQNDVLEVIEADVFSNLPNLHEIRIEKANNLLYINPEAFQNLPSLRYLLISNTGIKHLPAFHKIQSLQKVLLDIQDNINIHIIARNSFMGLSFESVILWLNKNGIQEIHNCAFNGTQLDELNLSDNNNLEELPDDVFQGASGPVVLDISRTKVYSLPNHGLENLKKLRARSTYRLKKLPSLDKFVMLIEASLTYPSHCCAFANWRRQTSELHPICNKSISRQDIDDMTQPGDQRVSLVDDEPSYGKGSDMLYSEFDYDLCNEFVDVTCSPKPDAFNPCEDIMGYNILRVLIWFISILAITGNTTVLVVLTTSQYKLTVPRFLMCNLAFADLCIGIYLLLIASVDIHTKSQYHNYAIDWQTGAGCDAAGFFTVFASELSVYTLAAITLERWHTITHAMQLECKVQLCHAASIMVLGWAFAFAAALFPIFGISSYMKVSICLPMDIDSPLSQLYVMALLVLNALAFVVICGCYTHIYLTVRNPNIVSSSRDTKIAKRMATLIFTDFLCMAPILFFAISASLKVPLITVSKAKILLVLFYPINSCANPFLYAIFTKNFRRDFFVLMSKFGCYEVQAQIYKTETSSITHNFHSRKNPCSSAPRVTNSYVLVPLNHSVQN
Assay: immunofluorescence, 293T cells transiently transduced with murine FSHR
Text: The use of 9H11 for staining FSHR in immunocytochemistry through immunofluorescence was validated.

B1: 9H11 monoclonal antibody (murine, original) (antibody, mouse IgG2a, kappa, V domains shown)
VH: QVNLKESGPGILQPSQTLNLTCSFSGFSLSTSGMGVGWIRQPSGKGLDWLAHIWWDDDKRYNPALKSRLTISKDASSNQVFLKIASVVTADTATYYCVQINYGNYRFDNWGHGTTLTVSS
VL: not shown
notes: Mouse hybridoma antibody; also called murine monoclonal antibody 9H11; 9H11 antibody
binding result: binds
